Earlier results as cited in patent US6319955A, “Use of MEK1 inhibitors as protective agents against damage due to ischemia” (priority 2000, dated 2001).

Settings: compared with native tPA

B1: C84S tPA (protein, UniProt P00750 36-562, looked up, variant C84S)
Tissue-type plasminogen …: SYQVICRDEKTQMIYQQHQSWLRPVLRSNRVEYCWCNSGRAQCHSVPVKSCSEPRCFNGGTCQQALYFSDFVCQCPEGFAGKCSEIDTRATCYEDQGISYRGTWSTAESGAECTNWNSSALAQKPYSGRRPDAIRLGLGNHNYCRNPDRDSKPWCYVFKAGKYSSEFCSTPACSEGNSDCYFGNGSAYRGTHSLTESGASCLPWNSMILIGKVYTAQNPSAQALGLGKHNYCRNPDGDAKPWCHVLKNRRLTWEYCDVPSCSTCGLRQYSQPQFRIKGGLFADIASHPWQAAIFAKHRRSPGERFLCGGILISSCWILSAAHCFQERFPPHHLTVILGRTYRVVPGEEEQKFEVEKYIVHKEFDDDTYDNDIALLQLKSDSSRCAQESSVVRTVCLPPADLQLPDWTECELSGYGKHEALSPFYSERLKEAHVRLYPSSRCTSQHLLNRTVTDNMLCAGDTRSGGPQANLHDACQGDSGGPLVCLNDGRMTLVGIISWGLGCGQKDVPGVYTKVTNYLDWIRDNMRP
Q: For B1, which “in vivo half life, in words” value is on record?
A: Its value is “longer in vivo half life than native tPA”.
